From PMC4674770, “Aβ-dependent reduction of NCAM2-mediated synaptic adhesion contributes to synapse loss in Alzheimer's disease” (Nature Communications, 2015)

Target: T1, Aβ1-42 peptide (Aβ1-42 oligomers, Aβ-derived diffusible ligands) (UniProt P05067 672-713)
T1 construct: amyloid-beta peptide 1-42, the cut product of the amyloid precursor protein APP; numbers count on: the Aβ peptide; Used as oligomers: by SDS-PAGE and western blot mainly tetramers (~18 kDa) with a minor monomer band (~4.5 kDa); also called synthetic Aβ_(1-42); source: bought: AbcamBiochemicals (synthetic Aβ1-42), prepared as Aβ-derived diffusible ligands
Experiment: ELISA; NCAM2-ED (25 nM) or BSA (25 nM) held on MaxiSorp 96-well plates coated with antibodies against the extracellular domain of NCAM2; Aβ1-42 7.8-250 nM in 0.05% Tween 20 and 0.1% BSA; bound Aβ1-42 detected with antibodies against Aβ1-42 and HRP-conjugated secondary antibodies
Conditions: both partners purified

binding result: binds
B1: recombinant extracellular domain of NCAM2 (NCAM2-ED) (domain or fragment, mouse, UniProt O35136 20-698, looked up)
chain: LLQVTISLSKVELSVGESKFFTCTAIGEPESIDWYNPQGEKIISTQRVMLQKEGVRSRLTIYNANIEDAGIYRCQATDAKGQTQEATVVLEIYQKLTFREVVSPQEFKQGEDAEVVCRVSSSPAPAVSWLYHNEEVTTIPDNRFAVLANNNLQILNINKSDEGIYRCEGRVEARGEIDFRDIIVIVNVPPAIMMPQKSFNATAERGEEMTLTCKASGSPDPTISWFRNGKLIEENEKYILKGSNTELTVRNIINKDGGSYVCKATNKAGEDQKQAFLQVFVQPHILQLKNETTSENGHVTLVCEAEGEPVPEITWKRAIDGVMFSEGDKSPDGRIEVKGQHGRSSLHIRDVKLSDSGRYDCEAASRIGGHQRSMHLDIEYAPKFVSNQTMYYSWEGNPINISCDVTANPPASIHWRREKLLLPAKNTTHLKTHSVGRKMILEIAPTSDNDFGRYNCTATNRIGTRFQEYILELADVPSSPHGVKIIELSQTTAKISFNKPESHGGVPIHHYQVDVKEVASETWKIVRSHGVQTMVVLSSLEPNTTYEIRVAAVNGKGQGDYSKIEIFQTLPVREPSPPSIHGQPSSGKSFKISITKQDDGGAPILEYIVKYRSKDKEDQWLEKKVQGNKDHIILEHLQWTMGYEVQITAANRLGYSEPTVYEFSMPPKPNIIKDTLFNG
notes: signal peptide in the construct; neural cell adhesion molecule 2 (NCAM2, OCAM), mouse, extracellular domain, amino acids 1-698, amplified from a mouse brain cDNA library; About 100 kDa on gels; also called recombinant soluble extracellular domains of NCAM2; source: CHO cells (CHO-K1), stably transfected, secreted into the culture medium; purified (40% ammonia sulphate, desalted, …)
